Measured values as given in patent US12077763B2, “RNA-based control of powdery mildew” (Greenlight Biosciences, Inc., priority 2021, dated 2024).

Test system: E. necator
Assay: Leaf disc assay, dry inoculum (settling tower), decrease in disease severity / hyphal growth (Example 2)
Settings: decrease in disease severity (hyphal growth) relative to untreated control, value ± SE; for % decrease =/− SE TP1: time point 1 (untreated control hyphal growth ≥50%); for % decrease =/− SE TP2: time point 2

Row | Molecule | % decrease =/− SE TP1 | % decrease =/− SE TP2
1 | GS3478 (nucleic acid) sense: ACCGUCCUGAAAGUAAAGGUGAAAAGAAAGAGCGUCUUCUCAAGGAAGCUACAGCUAUUAAAAAUGGCAACAAGGAGGAUGUCAGUAAGAAGCCAUACACAGUAAAGUAUGGACUCAAUCAUGUCGUUGGUUUGGUUGAGAAUAAGAAAGCUUCUCUAGUCUUAAUACCCAAUGAUGUCGAUCCUAUAGAGUUGGUUAUAUUUCUUCCAGCUCUUUGUCGAAAGAUGGGAGUUCCUUAUGCUAUCAUUAAAGGAAAAGCUAGACUUGGUACUGUUGUACACAAGAAAACUGCUGCUGUAUUGGCAAUAACUGAAGUUCGAUCCGAAGAUAAAUCAGAGCUAUCAAAAUUAAUCCAAGCUAUUAAAGAAGGCUACUCUGAGAAAUAUGAAGAAGCUAAG antisense: CUUAGCUUCUUCAUAUUUCUCAGAGUAGCCUUCUUUAAUAGCUUGGAUUAAUUUUGAUAGCUCUGAUUUAUCUUCGGAUCGAACUUCAGUUAUUGCCAAUACAGCAGCAGUUUUCUUGUGUACAACAGUACCAAGUCUAGCUUUUCCUUUAAUGAUAGCAUAAGGAACUCCCAUCUUUCGACAAAGAGCUGGAAGAAAUAUAACCAACUCUAUAGGAUCGACAUCAUUGGGUAUUAAGACUAGAGAAGCUUUCUUAUUCUCAACCAAACCAACGACAUGAUUGAGUCCAUACUUUACUGUGUAUGGCUUCUUACUGACAUCCUCCUUGUUGCCAUUUUUAAUAGCUGUAGCUUCCUUGAGAAGACGCUCUUUCUUUUCACCUUUACUUUCAGGACGGU | 29 ± 4% | 13 ± 9%
2 | GS3602 (nucleic acid) sense: CUUGGAACCGGUAUAUAUCCUAUGCAGUCCAAAAGAGUCCAGGAGUUCGGUAUCGGAUCAUAACACCAAACAUCGUUAUACCAUUGAAGACCAUUUGUUCCGCCAAACAAGUAAAGCUUUUCAUUAUAUGUCACAACUGAGUGAUUUGUUCUAGCUGAUGGUAUUUGUCCUACUGGGGGUCCACCAUCCUCACUAUUUUUAAUGAGAAUUUCCCACCUGUUCGUAGGGACUUGCAAAAGAUUCAAAUCAAAAGCCACAAGGUCAUUCAUAAAAUAACCCUCUACUUGCCCCCCGAAUACGUAGAUUUUAGACCCUAGUAUAUUGAGAGAAUGACCAUAACGCCCCGCGGG antisense: CCCGCGGGGCGUUAUGGUCAUUCUCUCAAUAUACUAGGGUCUAAAAUCUACGUAUUCGGGGGGCAAGUAGAGGGUUAUUUUAUGAAUGACCUUGUGGCUUUUGAUUUGAAUCUUUUGCAAGUCCCUACGAACAGGUGGGAAAUUCUCAUUAAAAAUAGUGAGGAUGGUGGACCCCCAGUAGGACAAAUACCAUCAGCUAGAACAAAUCACUCAGUUGUGACAUAUAAUGAAAAGCUUUACUUGUUUGGCGGAACAAAUGGUCUUCAAUGGUAUAACGAUGUUUGGUGUUAUGAUCCGAUACCGAACUCCUGGACUCUUUUGGACUGCAUAGGAUAUAUACCGGUUCCAAG | 5 ± 6% | 7 ± 8%
3 | GS3525 (nucleic acid) sense: CUGGAAUUGUUGCACUGGCCAUGUAAAGCAGUUUAUGACUCGUCUAAAUAUUUAAUUACGGCUAUGCACGGAGAGCUUGGGGUUACUGUUUUUUUUUCUCAAAAAUAUGCCGGUGGGAUUCGAAUUGGUCCGGAUAUUUUUUCUGUAAAUAAUUGAGUGACGGCUUUGUACUCGUGAUAAUUACAGACAAAUCUAAUAUAAUGUGCUUAUCCUUCUAACGAACUUCGGAGAAUGAUUUGUUUUAUUGAGUGAUUAGUUGACUUGUUUUAUUAGUUAUGGUUAUCAAACGAUCACAUAAAAAAACGCAUACUUUUUACAAUGAAGUGAUUGUAUACCAAUGUUUCCCUUGGUGGCCCUCAAAAAACUAAGUUAGAUAGAU antisense: AUCUAUCUAACUUAGUUUUUUGAGGGCCACCAAGGGAAACAUUGGUAUACAAUCACUUCAUUGUAAAAAGUAUGCGUUUUUUUAUGUGAUCGUUUGAUAACCAUAACUAAUAAAACAAGUCAACUAAUCACUCAAUAAAACAAAUCAUUCUCCGAAGUUCGUUAGAAGGAUAAGCACAUUAUAUUAGAUUUGUCUGUAAUUAUCACGAGUACAAAGCCGUCACUCAAUUAUUUACAGAAAAAAUAUCCGGACCAAUUCGAAUCCCACCGGCAUAUUUUUGAGAAAAAAAAACAGUAACCCCAAGCUCUCCGUGCAUAGCCGUAAUUAAAUAUUUAGACGAGUCAUAAACUGCUUUACAUGGCCAGUGCAACAAUUCCAG | 17 ± 9% | 34 ± 8%
4 | GS3526 (nucleic acid) sense: UAUCCCUGAUUUCUAUAGUCUGAUGAAGAAUGAUUUUUGUAGGCAAUAGACUUUCUUCUCUUCCCAGAACAGCAGCUUCUACAGCAUCCACAACAGCUUAGGAAAGAGAAGCAAGAACAACAAAAUGAGUAUCCAAAGCACAAGCAGCGUGUCAUACAAAUGAUAAUUGAGAGGACUAUUAAGCCACCGAUAACAAGUCCGAUUAUUGCUGGCCAUUUGCAAUAAAUUUGUAUCAUGCAUUUAUCCCAGUUGGUGAAUGAAGAAGUAACGUUUGAUACUUGAUUAGUUAAUUGAUCACUCAACUGAUCACUUACAAGCCUUGGCCUAAGCAAACUAAUCUCCAAAAAAUUCAUGUUUCCAAUAUUAACACCUCCGUGAUCUUCAUUAAAUAAGUAA antisense: UUACUUAUUUAAUGAAGAUCACGGAGGUGUUAAUAUUGGAAACAUGAAUUUUUUGGAGAUUAGUUUGCUUAGGCCAAGGCUUGUAAGUGAUCAGUUGAGUGAUCAAUUAACUAAUCAAGUAUCAAACGUUACUUCUUCAUUCACCAACUGGGAUAAAUGCAUGAUACAAAUUUAUUGCAAAUGGCCAGCAAUAAUCGGACUUGUUAUCGGUGGCUUAAUAGUCCUCUCAAUUAUCAUUUGUAUGACACGCUGCUUGUGCUUUGGAUACUCAUUUUGUUGUUCUUGCUUCUCUUUCCUAAGCUGUUGUGGAUGCUGUAGAAGCUGCUGUUCUGGGAAGAGAAGAAAGUCUAUUGCCUACAAAAAUCAUUCUUCAUCAGACUAUAGAAAUCAGGGAUA | 22 ± 10% | 11 ± 10%
5 | GS3601 (nucleic acid) sense: CAAUUGCUGCAGCAUGACCUUCUCUUGGAACCGGUAUAUAUCCUAUGCAGUCCAAAAGAGUCCAGGAGUUCGGUAUCGGAUCAUAACACCAAACAUCGUUAUACCAUUGAAGACCAUUUGUUCCGCCAAACAAGUAAAGCUUUUCAUUAUAUGUCACAACUGAGUGAUUUGUUCUAGCUGAUGGUAUUUGUCCUACUGGGGGUCCACCAUCCUCACUAUUUUUAAUGAGAAUUUCCCACCUGUUCGUAGGGACUUGCAAAAGAUUCAAAUCAAAAGCCACAAGGUCAUUCAUAAAAUAACCCUCUACUUGCCCCCCGAAUACGUAGAUUUUAGACCCUAGUAUAUUGAGAGAAUGACCAUAACGCCCCGCGGGCCGUGGCCCGGCAGGUAUAGCUCUGGA antisense: UCCAGAGCUAUACCUGCCGGGCCACGGCCCGCGGGGCGUUAUGGUCAUUCUCUCAAUAUACUAGGGUCUAAAAUCUACGUAUUCGGGGGGCAAGUAGAGGGUUAUUUUAUGAAUGACCUUGUGGCUUUUGAUUUGAAUCUUUUGCAAGUCCCUACGAACAGGUGGGAAAUUCUCAUUAAAAAUAGUGAGGAUGGUGGACCCCCAGUAGGACAAAUACCAUCAGCUAGAACAAAUCACUCAGUUGUGACAUAUAAUGAAAAGCUUUACUUGUUUGGCGGAACAAAUGGUCUUCAAUGGUAUAACGAUGUUUGGUGUUAUGAUCCGAUACCGAACUCCUGGACUCUUUUGGACUGCAUAGGAUAUAUACCGGUUCCAAGAGAAGGUCAUGCUGCAGCAAUUG |  | 2 ± 3%
6 | GS3523 (nucleic acid) sense: UAACGAGAGAGAAUACACGGUAAAGACAGUAGUAUGGCAUAUGAUGCAAAAUGUAGAAAAGAUUGUAAUUGAGUUGGCAGUAAGUUCAUUCACGAAAAAUGAAUUAUUUUCCACACCAUAUCCGGGCUGAGGAAGGAAGACAUUUGUUUUCAAGUCAAGUUAAUGAAAAAACCAAAAAUAAAACUCAAACACACAGUGAGUAAUUUUUAUUAAGGUGGUCCAAUAAUAAUUUUUUCUGACAUGUACUCCUUGUAGUUUUGAGAUGAAAAUAGAGAUAAUAUUGAGUCUGUCGUUAUCCGAAACAGUUUAUGUUAGAGGUUGAUAAAUGACGAUACAAAAUGUAUAUAUUAGGAAAUCAAUUUACCGUGACCAAUGAGAAAAGAGGAGGUCUAAUU antisense: AAUUAGACCUCCUCUUUUCUCAUUGGUCACGGUAAAUUGAUUUCCUAAUAUAUACAUUUUGUAUCGUCAUUUAUCAACCUCUAACAUAAACUGUUUCGGAUAACGACAGACUCAAUAUUAUCUCUAUUUUCAUCUCAAAACUACAAGGAGUACAUGUCAGAAAAAAUUAUUAUUGGACCACCUUAAUAAAAAUUACUCACUGUGUGUUUGAGUUUUAUUUUUGGUUUUUUCAUUAACUUGACUUGAAAACAAAUGUCUUCCUUCCUCAGCCCGGAUAUGGUGUGGAAAAUAAUUCAUUUUUCGUGAAUGAACUUACUGCCAACUCAAUUACAAUCUUUUCUACAUUUUGCAUCAUAUGCCAUACUACUGUCUUUACCGUGUAUUCUCUCUCGUUA | 8 ± 11% | 12 ± 10%
7 | GS3524 (nucleic acid) sense: UCAAGUCCACUUCGAUUUGUAAAGCAAGAAGUUAUGAGACCUUGAGAAUGACUGAGGUAGGCCGAAUAAGAUUUUCAGAUUCUAAAAUACUGGAUUUUGGUACCAAUUCAUGAUCCUUUCUGGCCCCCUUACAUUGGCGACAAGGCAGAUAGUCAUCGAGUUGGUCUUUUCCAGUCAAAGAAUGAUAAUCUCCAACGUCUUUCCGGGAAACAGAAGUUGUAUUGACAUUAAUUACAGCUGUGGAUGAGGAUGAACGAUAAUAUUGGCGUUGAGCUACAGGGAAGGGAUUCAACAGAUGCCAUUGCCAUUCAUAAUUUCCAUGAAGCCAAGUCGUUGAAGCCAGAGAUGCAAGUGUAUGGAAGAAUCCCAAGAGCCAAUUGAUUGAAGACAGAAUUACU antisense: AGUAAUUCUGUCUUCAAUCAAUUGGCUCUUGGGAUUCUUCCAUACACUUGCAUCUCUGGCUUCAACGACUUGGCUUCAUGGAAAUUAUGAAUGGCAAUGGCAUCUGUUGAAUCCCUUCCCUGUAGCUCAACGCCAAUAUUAUCGUUCAUCCUCAUCCACAGCUGUAAUUAAUGUCAAUACAACUUCUGUUUCCCGGAAAGACGUUGGAGAUUAUCAUUCUUUGACUGGAAAAGACCAACUCGAUGACUAUCUGCCUUGUCGCCAAUGUAAGGGGGCCAGAAAGGAUCAUGAAUUGGUACCAAAAUCCAGUAUUUUAGAAUCUGAAAAUCUUAUUCGGCCUACCUCAGUCAUUCUCAAGGUCUCAUAACUUCUUGCUUUACAAAUCGAAGUGGACUUGA | 3 ± 11% | 22 ± 12%
